Experimental findings from PMC9458469 (The Journal of Cell Biology, 2022) are described below.

The target in series [1] is Hsp-12.1 (purified) (C. elegans). Kind of series: SEC. On the technique in general: SEC sorts molecules by how far they enter the pores of the column.
The series “SEC” concerns the molecule itself. The experiment in a line: SEC.

The term stoichiometry N denotes a count of units in the complex or per binding partner. For the molecule Hsp-12.1 (purified) (natural protein), in series [1], the stoichiometry N was found to be 4 subunits.

B1: Hsp-16.1 (purified) (natural protein, C. elegans, UniProt P34696 1-145, looked up)
chain: MSLYHYFRPAQRSVFGDLMRDMAQMERQFTPVCRGSPSESSEIVNNDQKFAINLNVSQFKPEDLKINLDGHTLSIQGEQELKTEHGYSKKSFSRVILLPEDVDVGAVASNLSEDGKLSIEAPKKEAIQGRSIPIQQAPVEQKTSE
For B1, the “stoichiometry N” value in the series “SEC” is about 34 subunits.
